B1: Sclerotinia sclerotiorum dsRNA mycovirus-L (nucleic acid)
DNA: TTGAATTAATCTTTTACGTTTACGCGCATAAAATCAGGACACATCTCTTGTATACTTTAGTATATCAATGATGTTTTTGTTTTATGCGATTAATCGTAAGAGAACTTCTTTCCATCCGCCTGTATGGGCGGGATAATAAGTTCACCGCCTTGGTCGAGGCGCAAACTTGTATGTGCAAAGGTGAGCTATATGCTCGAAATAGTCGTAACTAACACACAGCCACTACCTGTAGAGCTCTATTGATCCGGAATCCTTTAGTGGGAATGCAGAGCTCACACCGGACCTGCGGGTATCTTCGGCGTTAGGGACTTCTGTTTCAGCCTTGAATCATTTACCTTTATACCTTCTCTGAGGCGCCTGGGCCGGGCGCGATATTAAGTACAAGTCAAGGACATCGCGGGTAGTGGTCTAATCAGCCGCTAGTCCTGCTGGAGAGTTCCAACTTAGTTGGGTGTGGTGCATACTAGCTGGATAGAGTAGGTATGTATTGCTAACGTATGCCGGAGGCTATCCGTCCTCGGTAGAACGTGCCGAGGAGTAGTCTCTGCAGACCCCCGAACGCGTGGGGTCTTTACTTAAATGTAGGCGGAGGGAGCGCTCGTAGGTGGAACGACTGCCTCCCAGTCGAATGCAAGATTTTGCACGCGGACCAGTCTGCCCGGCAATTCCCGGGTG
B2: Shingleback nidovirus 1 (nucleic acid)
DNA: CTGTGAGTACCGACAGGCTCGAAGTCTATTATGAGGCGTCGAAACAGAAAACCTGTAACAACTCCGGTTTCATCTATCACTGCCGTCAAGAGGCAGAAGAGGACGACCACGTGTCACCAGATCACTTGTATCTGTTTCAGTCAGGAAGTCAACTTTTCGACGAAGTTCGACCATTCATCGACCCGCTGAAAAGCGTAGAAGTCGATGAAGATGAGCTCCAAAGAGCCATCGCCGATTTCGACAACCAAAGTGACTGTTTCCACTCCTTCGAGCTCGTGAATTTCGAGCTGAAACAACAAATCAACGAGAACGAGTGGTACGGTTATTATAATTACGACAACCAAAACTGCAAAGTTCAGTTGCCAGTCACATGTCGAATCGAGGACGTAACCTGGGATCAGGTTTACGTG
modifications: Shingleback nidovirus 1
B3: Rodent hepatovirus (nucleic acid, listed as Hepatovirus sp.)
DNA: TTCAAAGAGGGGTCCGGGATTTTCCTGGTCCCCCTCTTTGGGCACCCTTGGCTCGGGGGTGTGAATACCGTGCTCGCGTTTGCCGTGCGTTAACGGCTTCATTTATGTTTGTTTGTCTGTTTTATTATGTTGGTTTGTCTGTTTGTTATGTTGGTATTGTTCGTGTTTAATGTTATGACCACATTACACTCCAGCCAATGAAGAACAGATGGTGCGGTTATTGCTGGCGGAATTCCTAACGTCCTGGATCCGTTGGTACGCATCACAAAACAATTTGCAGAGAGAGTGGTGAAACGGCTTGGGAATCCCTGAGTACAGGGAAATCACACTGATAGCTCATCTTGGCTGTTTTCAGTCATGGACCTTATGCAGTGTAATTTGGGTGTACCCCCCATAGCTTAGGAGGAATGTTCTGTCTTGGCACTAGAGTGGGACGCTGATGCCTCCGTGTCTAGGATGGTCTAAGGGACAGAATGGGGTGCCTCTGATGCCATACTACCTGATAGGGTGCTCTCACGGCCTCTGCATCTTAGTGAGAAGTTCAATTTT
B4: Seneca valley virus (nucleic acid)
DNA: TTTGAAATGGGGGGCTGGGCCCTGATGCCCAGTCCTTCCTTTCCCCTTCCGGGGGGTTAACCGGCTGTGTTTGCTAGAGGCACAGAGGGGCAACATCCAACCTGCTTTTGCGGGGAACGGTGCGGCTCCGATTCCTGCGTCGCCAAAGGTGTTAGCGCACCCAAACGGCGCACCTACCAATGTTATTGGTGTGGTCTGCGAGTTCTAGCCTACTCGTTTCTCCCCCGACCATTCACTCACCCACGAAAAGTGTGTTGTAACCATAAGATTTAACCCCCGCACGGGATGTGCGATAACCGTAAGACTGGCTCAAGCGCGGAAAGCGCTGTAACCACATGCTGTTAGTCCCTTTATGGCTGCAAGATGGCTACCCACCTCGGATCACTGAACTGGAGCTCGACCCTCCTTAGTAAGGGAACCGAGAGGCCTTCGTGCAACAAGCTCCGACACAGAGTCCACGTGACTGCTACCACCATGAGTACATGGTTCTCCCCTCTCGACCCAGGACTTCTTTTTGAATATCCACGGCTCGATCCAGAGGGTGGGGCATGACCCCTAGCATAGCGAGCTACAGCGGGAACTGTAGCTAGGCCTTAGCGTGCCTTGGATACTGCCTGATAGGGCGACGGCCTAGTCGTGTCGGTTCTATAGGTAGCACATACAAAT
B5: Rabovirus A (nucleic acid)
DNA: CTACGGATATTTGCATGACCCGCTTTCTATCGCCCCAACAATCCCCTTTGTAACCACAAGCTTTACTCAGGCTAGCAGCCCGACTAGCTGTTTGGAAGAAAAGGCTAGGGCACACACCAACAACACCGACCCCACTGGTCGAAGGCCGCTTGGCAATAAGACTGGTGGAACAGGGTCGCCTGTAGTTGTTTGGAACATTCTTTCTAATGACTTTGTCAGCGGTGCTACTCACACCGTAACTCTTCTACCCTATCCCCACGCTTGTGGAACTAGGAGGGGATGAGTGATTCAAGTAAGTACTGTCAGAATGGTGAAAATGATCTGATTCTGAAACGCTATGGATCCATCGAAAGATGGGGCTACACGCCTGCGGAACAACACATGGTAACATGTGCCCCAGGGGCCGAAAGCCACGGTGATAGGATCACCCGTGTAGTTTGAGATCATATCAATGTTCATAGTCTAGTAAGATGATTTGAAATCTAACTGAGCTGATGGCTAACTGCTTGTCTTATTGCGGCCTAAGGATGTCCTGCAGGTACCTTTAGATAACCTTAAGAGACTATTGATCTGAGCAGGAGCCAAAGTGGTCTTTCCCAGCTTTGGTTAAAAAACGTCTAAGCCGCGGCAGGGGGCGGGAGGCCCCCTTTCCTCCCAAAACTTAATATTGATTGT
modifications: Rabovirus A
B6: Wobbly possum disease virus (nucleic acid)
DNA: CGGCTGTGAGTGCTTAGCATATGCTAGAGTACTACAGCCGGGTGTTGGAGTCATATGCACTGGTTGCCTGTATAATAGTCGGGATCTGTCTGACCTACATTATCTTTGGGAGTTGCTTATCACGACAATTCTCGAAGTGTCTGTCGACAGCTTACCCCCGATTCGACAAGGCCCCTTGTCCACCGCAGACCTATCGATTTTCAACGAGAACACTATCAGAGGTTTAAATTTAAAACTCACCAACA
B7: Yak enterovirus (nucleic acid, listed as Enterovirus sp.)
DNA: CTCCGGCACAGCCGCACCAGTGCACTGGTACGCTAGTACCTTTTCACGGGGTAGTCGGTATCCCCCCCCGTAACTTAGAAGCATGTAACAAACCGACCAATAGGTGCGCGGCAGCCAGCTGCGTTGCGGTCAAGCACTTCTGTCTCCCCGGTCCGCAAGGATCGTTACCCGCCCACTCCACTACGAGGAGCCTAGTAACTGGCCAAGTGATTGCGGAGTTGCGTTCAGCCACAACCCCAGTGGTAGCTCTGGAAGATGGGGCTCGCACATCCCCCGTGGTAACACGGTTGCTTGCCCGCGTGTGCTTCCGGGTTCAGTCTCCGACTGTTCACTTCAACATCACGCAACCAGCCAAGAGCCGATTGTGCTGGAGTGGTCTTCCTCCGGGGCCGTGAATGCTGCTAATCCTAACCTCCGAGCGTGTGCGCACAATCCAGTGTTGCTACGTCGTAACGCGTAAGTTGGAGGCGGAACAGACTACTTTCGGCACCCCGTGTTTCCTTTATTTTATTCTTATTTTATGGTGACAATTGCAGAGATTTGTGATATTGCGACTTTACCGTTAAACATAGCACTGCATTACCTGGTTGCATTCCACAAAACTTCAGAGATTCCTAGTTCCTACATTGACCTACTTGTTTATTTGAATCTTAAATACAAACTTGAGCAAGTGAA
B8: Picornavirales Tottori-HG1 (nucleic acid)
DNA: AGCCATGAACTAGTGTGCGATTCCCACAGTGTTGGTCGAAAGCCCCGCACTGTCTACTCGCATATTTGACTCCAGTCCTTCCGCAGCCAGCGGTTAGGTTCTGGTTAAAGTGCATTATGTGCACGGCGCCACGCAGAACTGCCAGAAATGGTAAGCTGCGCCCAACGCCAACGGTTTGTGTATCCCGTTAGTCACACGTTTACAGCTGTTCGTTAACAGTAGGGTTTTGTCGACCCGGACCCCTTAATGCGCGCGAATTCAACCGCGCCTAGTCGGCAATGGTATCATTTAATCCCATGCACTACGGGAGAAATTTGAGACCAAAGAATTCCTGAGGGCCACTGCTTGCTCTAAGTGCAATGCCTCGGGAGACTTCTGTCAGGAGCCTAGCGGCTTTCAACCGCGACAGCTAACTCCTGCGGGATGTTTGGTGTCCATACTTACTGGCGTCCTCACAACGCTAAGTGGATGTTGTCCACAGGTAGGCAAACACCGAGCCCCACATTCAGGAGACCTGTATGAACGATCCTATCAGCATTAGAGTTGGAATTGGGTGTGCTAACGTCCGCATAAGTGCACCCCGTGGTAACGCTGGGAAACTATCCAGCGCAACGTACTGTCCTCAATGTCTAGGGAAGGACCGCCCTAAGCGTACAACCGGGCCATGTGTCGAGC
B9: Livupivirus (nucleic acid, listed as Livupivirus sp.)
DNA: TATCTACATGGGGATCCAGGCTGTATGGAATGTCTGTCTTAACAAGCACTATACCAGAAAGATCCACCCAAAGTGGTGGGACTGGGACTGTGAGGTGAGAAATCCCGAAACCAGCCTTCTCAAGCGTCGGACGATCTTTCTGTTTTAGTGAACACCTTGCCTTTTAAATGGATGACAACACCCCTTCAGCAAATCGCAATCTGAAATCCCAAAAGACTGTTTAGCCGAACTCTGGTAATCACTCCGGAGAAGTAGGATACGCAGCCCCTGTGGACTCTTGATTTCAGGACTCAAGGTAGCTAGAGCTGGAACTTCATGGAATGACAAAGGAATATATGCACATTGTGCGCTTTCCTGGCCTTGTAGCCCGTCGTGAGGATATGTCGTTGGGAATCGACATCTTAGTCCAGTACTGCTTGATAGAGTGTCGGCTGGCACAGTTACCTGAGAATAAGTCAGTTGTACTTAACATGAACAAAAAAAATAACTACCACAACTACCACAATCTACCAATACTTGAATTATGCTGAATCTCGTACAGTAAAAACGTTCCGTGGAAGGACAAGTATTGAAGTGCGGTTACATCATCCGATACGCGCTGGATCCCTCA

These molecules were tested on HEK293 cells. Details: luminescence from secreted Gluc in supernatant 24 hours after transfection of HEK293 cells; circular RNA encoding Gluc with the named IRES (UTR truncated to 675 nt).
Format: cell-based, human

Molecule	Expression
B1	1.69E+05
B2	2.62E+05
B3	1.39E+05
B4	1.46E+07
B5	2.88E+06
B6	2.60E+05
B7	6.19E+06
B8	9.54E+04
B9	2.10E+05

— patent publication US20230226096A1 (Orna Therapeutics, Inc., priority 2020, published 2023)
